Reference: US20030068675, “Position dependent recognition of GNN nucleotide triplets by zinc fingers” (published 2003)

Assays:
Experiment in all cases: EMSA
Conditions in all cases: tags: MBP fusion
ZFP SBS#985 = target: T1, ZFP SBS#985 (synthetic)
T1 chain: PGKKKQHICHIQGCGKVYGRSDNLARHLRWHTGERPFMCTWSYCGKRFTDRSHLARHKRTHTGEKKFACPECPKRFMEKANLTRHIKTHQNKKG
Outline: (§1)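 Purified ZFP was titrated against labeled double-stranded target (1 nM or lower, at least 10-fold below expected Kd) carrying the natural binding site with flanks. Binding buffer was 10 mM Tris pH 7.5, 100 mM KCl, 1 mM MgCl2, 0.1 mM ZnCl2, 5 mM DTT, 10% glycerol, 0.02% BSA, with equilibration for at least 45 min. Bound and free target were separated on a 10% polyacrylamide gel.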

ZFP SBS#984 = target: T2, ZFP SBS#984 (synthetic)
T2 chain: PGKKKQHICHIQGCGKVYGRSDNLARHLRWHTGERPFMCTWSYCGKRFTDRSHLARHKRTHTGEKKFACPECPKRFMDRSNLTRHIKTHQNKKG
Outline: as §1

ZFP SBS#966 = target: T3, ZFP SBS#966 (synthetic)
T3 chain: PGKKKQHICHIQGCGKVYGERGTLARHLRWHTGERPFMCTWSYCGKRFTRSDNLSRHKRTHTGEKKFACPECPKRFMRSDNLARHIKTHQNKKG
Outline: as §1

ZFP SBS#967 = target: T4, ZFP SBS#967 (synthetic)
T4 chain: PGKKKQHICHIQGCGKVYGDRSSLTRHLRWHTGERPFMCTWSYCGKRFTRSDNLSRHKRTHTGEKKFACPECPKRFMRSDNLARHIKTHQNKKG
Outline: as §1

ZFP SBS#994 = ZFP SBS#994 (synthetic)
Outline: as §1

ZFP SBS#939 = target: T5, ZFP SBS#939 (synthetic)
T5 chain: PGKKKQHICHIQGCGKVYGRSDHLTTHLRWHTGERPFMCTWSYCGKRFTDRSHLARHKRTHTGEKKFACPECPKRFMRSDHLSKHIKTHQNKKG
Outline: as §1

ZFP SBS#940 = ZFP SBS#940 (synthetic)
Outline: as §1

ZFP SBS#968 = target: T6, ZFP SBS#968 (synthetic)
T6 chain: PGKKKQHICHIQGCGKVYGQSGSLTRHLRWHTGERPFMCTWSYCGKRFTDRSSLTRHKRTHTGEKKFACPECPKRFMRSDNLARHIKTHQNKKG
Outline: as §1

ZFP SBS#969 = target: T7, ZFP SBS#969 (synthetic)
T7 chain: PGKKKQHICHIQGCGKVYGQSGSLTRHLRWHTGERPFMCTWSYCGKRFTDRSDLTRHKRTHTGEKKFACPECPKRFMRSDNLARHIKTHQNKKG
Outline: as §1

ZFP SBS#973 = target: T8, ZFP SBS#973 (synthetic)
T8 chain: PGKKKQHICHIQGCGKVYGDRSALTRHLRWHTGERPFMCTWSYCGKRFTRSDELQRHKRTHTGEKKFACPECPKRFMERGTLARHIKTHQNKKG
Outline: as §1

ZFP SBS#974 = target: T9, ZFP SBS#974 (synthetic)
T9 chain: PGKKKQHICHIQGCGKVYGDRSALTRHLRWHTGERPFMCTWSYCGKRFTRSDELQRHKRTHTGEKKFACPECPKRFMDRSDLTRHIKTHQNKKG
Outline: as §1

ZFP SBS#989 = target: T10, ZFP SBS#989 (synthetic)
T10 chain: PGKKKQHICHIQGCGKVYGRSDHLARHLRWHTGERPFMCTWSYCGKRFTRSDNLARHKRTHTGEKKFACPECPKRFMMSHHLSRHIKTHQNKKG
Outline: as §1

ZFP SBS#965 = target: T11, ZFP SBS#965 (synthetic)
T11 chain: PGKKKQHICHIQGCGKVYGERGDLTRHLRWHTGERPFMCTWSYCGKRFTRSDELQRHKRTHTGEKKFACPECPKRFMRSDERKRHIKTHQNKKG
Outline: as §1

ZFP SBS#438 = ZFP SBS#438 (synthetic)
Outline: as §1

ZFP SBS#368 = ZFP SBS#368 (synthetic)
Outline: as §1

ZFP SBS#976 = ZFP SBS#976 (synthetic)
Outline: as §1

ZFP SBS#975 = target: T12, ZFP SBS#975 (synthetic)
T12 chain: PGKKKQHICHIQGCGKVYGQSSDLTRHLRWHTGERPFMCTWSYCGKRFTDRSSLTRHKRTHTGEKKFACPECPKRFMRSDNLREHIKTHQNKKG
Outline: as §1

ZFP SBS#978 = target: T13, ZFP SBS#978 (synthetic)
T13 chain: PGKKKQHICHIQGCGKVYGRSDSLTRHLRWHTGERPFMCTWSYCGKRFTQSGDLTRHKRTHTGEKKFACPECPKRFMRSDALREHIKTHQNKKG
Outline: as §1

ZFP SBS#977 = target: T14, ZFP SBS#977 (synthetic)
T14 chain: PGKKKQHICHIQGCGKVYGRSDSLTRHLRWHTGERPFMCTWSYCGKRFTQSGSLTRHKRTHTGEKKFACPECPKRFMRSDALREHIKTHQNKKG
Outline: as §1

ZFP SBS#970 = target: T15, ZFP SBS#970 (synthetic)
T15 chain: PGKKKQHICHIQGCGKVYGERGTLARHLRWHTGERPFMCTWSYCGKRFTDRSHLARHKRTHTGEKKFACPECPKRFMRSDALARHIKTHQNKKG
Outline: as §1

ZFP SBS#971 = target: T16, ZFP SBS#971 (synthetic)
T16 chain: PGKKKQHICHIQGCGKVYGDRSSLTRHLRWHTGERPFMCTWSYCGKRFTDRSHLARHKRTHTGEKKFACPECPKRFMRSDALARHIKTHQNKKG
Outline: as §1

ZFP SBS#972 = target: T17, ZFP SBS#972 (synthetic)
T17 chain: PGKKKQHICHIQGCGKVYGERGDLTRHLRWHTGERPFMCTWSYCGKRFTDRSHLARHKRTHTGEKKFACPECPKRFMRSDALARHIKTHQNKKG
Outline: as §1

ZFP SBS#1001 = ZFP SBS#1001 (synthetic)
Outline: as §1

ZFP SBS#435 = target: T18, ZFP SBS#435 (synthetic)
T18 chain: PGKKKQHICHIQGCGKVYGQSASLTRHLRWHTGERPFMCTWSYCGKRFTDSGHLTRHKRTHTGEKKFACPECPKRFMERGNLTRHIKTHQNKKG
Outline: as §1

ZFP SBS#434 = target: T19, ZFP SBS#434 (synthetic)
T19 chain: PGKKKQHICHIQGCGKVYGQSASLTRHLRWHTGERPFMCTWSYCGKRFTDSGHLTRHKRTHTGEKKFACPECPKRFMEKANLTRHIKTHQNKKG
Outline: as §1

ZFP SBS#437 = ZFP SBS#437 (synthetic)
Outline: as §1

ZFP SBS#436 = ZFP SBS#436 (synthetic)
Outline: as §1

ZFP SBS#991 = ZFP SBS#991 (synthetic)
Outline: as §1

ZFP SBS#990 = target: T20, ZFP SBS#990 (synthetic, UniProt P08047)
T20 chain: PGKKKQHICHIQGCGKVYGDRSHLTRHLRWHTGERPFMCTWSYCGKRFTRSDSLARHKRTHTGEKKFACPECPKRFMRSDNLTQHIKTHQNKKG
Outline: as §1

ZFP SBS#1006 = ZFP SBS#1006 (synthetic)
Outline: as §1

ZFP SBS#999 = ZFP SBS#999 (synthetic)
Outline: as §1

ZFP SBS#997 = ZFP SBS#997 (synthetic)
Outline: as §1

ZFP SBS#981 = target: T21, ZFP SBS#981 (synthetic, UniProt P08047)
T21 chain: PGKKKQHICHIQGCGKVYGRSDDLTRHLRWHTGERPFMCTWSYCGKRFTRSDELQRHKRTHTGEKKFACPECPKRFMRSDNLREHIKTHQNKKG
Outline: as §1

ZFP SBS#983 = target: T22, ZFP SBS#983 (synthetic)
T22 chain: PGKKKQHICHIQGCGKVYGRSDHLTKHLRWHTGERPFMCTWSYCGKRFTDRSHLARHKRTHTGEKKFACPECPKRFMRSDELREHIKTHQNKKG
Outline: as §1

ZFP SBS#982 = target: T23, ZFP SBS#982 (synthetic)
T23 chain: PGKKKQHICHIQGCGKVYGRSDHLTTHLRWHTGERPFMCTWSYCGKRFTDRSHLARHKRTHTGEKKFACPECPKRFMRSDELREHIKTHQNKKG
Outline: as §1

Chain of ZFP SBS#940 (synthetic) (chain, as listed by the source): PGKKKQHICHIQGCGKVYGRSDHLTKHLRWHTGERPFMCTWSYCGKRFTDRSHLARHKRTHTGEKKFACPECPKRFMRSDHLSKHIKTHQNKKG
Chain of ZFP SBS#368 (synthetic) (chain, as listed by the source): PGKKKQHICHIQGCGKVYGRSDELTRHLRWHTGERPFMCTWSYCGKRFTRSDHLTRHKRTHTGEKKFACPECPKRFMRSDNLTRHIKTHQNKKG
Chain of ZFP SBS#997 (synthetic) (chain, as listed by the source): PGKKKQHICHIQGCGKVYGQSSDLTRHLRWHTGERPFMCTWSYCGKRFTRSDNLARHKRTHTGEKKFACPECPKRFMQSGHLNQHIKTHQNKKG
Chain of ZFP SBS#999 (synthetic) (chain, as listed by the source): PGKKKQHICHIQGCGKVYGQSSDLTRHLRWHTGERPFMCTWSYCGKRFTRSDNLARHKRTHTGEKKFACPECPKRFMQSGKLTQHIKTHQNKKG
Chain of ZFP SBS#1001 (synthetic) (chain, as listed by the source): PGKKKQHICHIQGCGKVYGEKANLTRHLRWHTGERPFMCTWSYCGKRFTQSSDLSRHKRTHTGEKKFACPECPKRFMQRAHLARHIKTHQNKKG
Chain of ZFP SBS#436 (synthetic) (chain, as listed by the source): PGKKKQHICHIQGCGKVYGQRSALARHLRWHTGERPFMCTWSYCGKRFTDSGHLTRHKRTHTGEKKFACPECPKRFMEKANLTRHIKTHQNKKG
Chain of ZFP SBS#991 (synthetic) (chain, as listed by the source): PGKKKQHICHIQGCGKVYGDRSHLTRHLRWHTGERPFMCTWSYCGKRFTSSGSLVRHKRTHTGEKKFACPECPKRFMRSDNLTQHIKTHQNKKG
Chain of ZFP SBS#976 (synthetic) (chain, as listed by the source): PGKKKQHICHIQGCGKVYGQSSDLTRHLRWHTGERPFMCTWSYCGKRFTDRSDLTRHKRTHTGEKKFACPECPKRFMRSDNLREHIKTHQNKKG
Chain of ZFP SBS#1006 (synthetic) (chain, as listed by the source): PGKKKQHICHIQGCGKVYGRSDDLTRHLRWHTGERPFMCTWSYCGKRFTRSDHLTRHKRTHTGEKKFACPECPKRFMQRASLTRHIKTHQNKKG
Chain of ZFP SBS#437 (synthetic) (chain, as listed by the source): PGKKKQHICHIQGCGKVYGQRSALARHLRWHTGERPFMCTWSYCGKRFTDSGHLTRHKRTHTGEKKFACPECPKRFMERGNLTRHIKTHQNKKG

B1: GACGGCGAG (dsDNA)
DNA 1: GACGGCGAG
DNA 2: CTCGCCGTC
- Kd (ZFP SBS#985): 0.965 nM
- Kd (ZFP SBS#984): 1.6 nM

B2: GAGGAGGCC (dsDNA)
DNA 1: GAGGAGGCC
DNA 2: GGCCTCCTC
- Kd (ZFP SBS#966): 0.028 nM
- Kd (ZFP SBS#967): 0.055 nM

B3: GGGGGCTGG (dsDNA)
DNA 1: GGGGGCTGG
DNA 2: CCAGCCCCC
- Kd (ZFP SBS#994): 0.03 nM
- Kd (ZFP SBS#939): 0.352 nM
- Kd (ZFP SBS#940): 1.5 nM

B4: GAGGCCGCA (dsDNA)
DNA 1: GAGGCCGCA
DNA 2: TGCGGCCTC
- Kd (ZFP SBS#968): 1.4 nM
- Kd (ZFP SBS#969): 0.275 nM

B5: GCCGCGGTC (dsDNA)
DNA 1: GCCGCGGTC
DNA 2: GACCGCGGC
- Kd (ZFP SBS#973): 0.6 nM
- Kd (ZFP SBS#974): 0.038 nM

B6: GGTGAGGGG (dsDNA)
DNA 1: GGTGAGGGG
DNA 2: CCCCTCACC
- Kd (ZFP SBS#989): 1.9 nM

B7: GCGGCGGCC (dsDNA)
DNA 1: GCGGCGGCC
DNA 2: GGCCGCCGC
- Kd (ZFP SBS#965): 3.1 nM

B8: GAGGGGGCG (dsDNA)
DNA 1: GAGGGGGCG
DNA 2: CGCCCCCTC
- Kd (ZFP SBS#438): 62.5 nM
- Kd (ZFP SBS#368): 3.5 nM

B9: CAGGCCGCT (dsDNA)
DNA 1: CAGGCCGCT
DNA 2: AGCGGCCTG
- Kd (ZFP SBS#976): 4.12 nM
- Kd (ZFP SBS#975): 1.1 nM

B10: CTGGCAGTG (dsDNA)
DNA 1: CTGGCAGTG
DNA 2: CACTGCCAG
- Kd (ZFP SBS#978): 1.58 nM
- Kd (ZFP SBS#977): 0.017 nM

B11: GTGGGCGCC (dsDNA)
DNA 1: GTGGGCGCC
DNA 2: GGCGCCCAC
- Kd (ZFP SBS#970): 1.86 nM
- Kd (ZFP SBS#971): 0.144 nM
- Kd (ZFP SBS#972): 1.75 nM

B12: GGAGCTGAC (dsDNA)
DNA 1: GGAGCTGAC
DNA 2: GTCAGCTCC
- Kd (ZFP SBS#1001): 1.8 nM

B13: GACGGCGTA (dsDNA)
DNA 1: GACGGCGTA
DNA 2: TACGCCGTC
- Kd (ZFP SBS#435): 150 nM
- Kd (ZFP SBS#434): 152 nM
- Kd (ZFP SBS#437): 118 nM
- Kd (ZFP SBS#436): 95 nM

B14: AAGGTGGGC (dsDNA)
DNA 1: AAGGTGGGC
DNA 2: GCCCACCTT
- Kd (ZFP SBS#991): 0.06 nM
- Kd (ZFP SBS#990): 5.35 nM

B15: GTAGGGGCG (dsDNA)
DNA 1: GTAGGGGCG
DNA 2: CGCCCCTAC
- Kd (ZFP SBS#1006): 0.898 nM

B16: AGAGAGGCT (dsDNA)
DNA 1: AGAGAGGCT
DNA 2: AGCCTCTCT
- Kd (ZFP SBS#999): 0.6 nM
- Kd (ZFP SBS#997): 1.65 nM

B17: CAGGCGGCG (dsDNA)
DNA 1: CAGGCGGCG
DNA 2: CGCCGCCTG
- Kd (ZFP SBS#981): 0.375 nM

B18: CCGGGCTGG (dsDNA)
DNA 1: CCGGGCTGG
DNA 2: CCAGCCCGG
- Kd (ZFP SBS#983): 1.39 nM
- Kd (ZFP SBS#982): 0.03 nM
